From patent US20070083037A1 (published 2007)
Where no end group is shown, it is not given here.

T1: rhesus monkey NPY Y4 receptor protein of SEQ ID NO: 4 (encoded by the nucleotide sequence of SEQ ID NO: 3) (rhesus monkey, UniProt P0DQD5 1-375 (human entry))
T1 construct: 375 residues; also called rhesus monkey Y4 receptor
T1 chain: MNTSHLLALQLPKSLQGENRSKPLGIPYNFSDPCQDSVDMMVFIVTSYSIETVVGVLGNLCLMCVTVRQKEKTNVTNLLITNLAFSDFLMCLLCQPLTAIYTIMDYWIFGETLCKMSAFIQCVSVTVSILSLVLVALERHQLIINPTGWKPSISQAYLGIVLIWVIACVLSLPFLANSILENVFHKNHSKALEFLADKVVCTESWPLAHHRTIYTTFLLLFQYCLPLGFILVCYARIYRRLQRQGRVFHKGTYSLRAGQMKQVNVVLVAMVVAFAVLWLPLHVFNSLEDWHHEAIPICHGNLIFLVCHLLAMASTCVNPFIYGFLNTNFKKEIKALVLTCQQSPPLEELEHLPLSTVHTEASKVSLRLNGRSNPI

T2: rhesus monkey NPY Y4 receptor protein of SEQ ID NO: 2 (encoded by the nucleotide sequence of SEQ ID NO: 1) (rhesus monkey, UniProt P0DQD5 1-375 (human entry))
T2 construct: 375 residues; also called rhesus monkey Y4 receptor
T2 chain: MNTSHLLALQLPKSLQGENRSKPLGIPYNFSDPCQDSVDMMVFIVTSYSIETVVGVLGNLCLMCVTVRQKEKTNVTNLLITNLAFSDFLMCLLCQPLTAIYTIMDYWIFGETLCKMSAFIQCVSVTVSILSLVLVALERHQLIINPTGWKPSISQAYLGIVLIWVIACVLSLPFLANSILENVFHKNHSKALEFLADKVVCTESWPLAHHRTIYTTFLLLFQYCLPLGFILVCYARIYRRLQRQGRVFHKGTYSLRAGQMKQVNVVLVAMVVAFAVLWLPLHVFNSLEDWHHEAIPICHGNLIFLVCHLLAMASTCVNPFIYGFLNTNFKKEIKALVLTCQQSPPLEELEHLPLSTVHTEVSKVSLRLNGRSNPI


How the values were obtained:
[1] = target: T1, rhesus monkey NPY Y4 receptor protein …; test: competition against 59 pM [125I]human PP, COS-7 membrane fractions, filter binding
Protocol: (§1) The membrane fraction obtained in this manner was incubated for 2 hours at 25° C. together with 31 pM [¹²⁵I]human PP in 25 mM Tris buffer (pH 7.4) containing 10 mM MgCl₂, 1 mM phenylmethylsulfonyl fluoride, 0.1% bacitracin and 0.5% bovine serum albumin, and then filtered through a polyethyleneimine-treated UniFilter-96 GF/C (Perkin-Elmer). After rinsing with 5 mM Tris buffer (pH 7.4) containing 0.3% bovine serum albumin and drying, MicroScint0 (Perkin-Elmer) was added, and a TopCount HTS (Packard) was used to measure the residual radioactivity on the filter. The non-specific binding was measured in the presence of 1 μM human PP.
(§2) Also, with the membrane fraction concentration set to 0.155 and 0.14 mg protein/ml and the [¹²⁵I]human PP concentration set to 59 pM, human PP, human NPY and swine PYY were added to the reaction solution at different concentrations, and a Prism Version 4.00 (GraphPad) was used to determine the 50% inhibitory concentration (IC₅₀ value) from the inhibition curve for each peptide against specific [¹²⁵I]human PP binding (FIGS. 3 and 4).

[2] = target: T2, rhesus monkey NPY Y4 receptor protein …; test: as above
Protocol: as §1, §2

[3] = target: T1, rhesus monkey NPY Y4 receptor protein …; test: cell-based or functional assay
[4] = target: T2, rhesus monkey NPY Y4 receptor protein …; test: cell-based or functional assay

Row | IC50 [1] [nM] | IC50 [2] [nM] | EC50 of the increase in fluorescent intensity (intracellular calcium ion concentration, Fluo-4, FLIPR) in CHO-K1 cells with G alpha 15 [3] [nM] | EC50 of the increase in fluorescent intensity (intracellular calcium ion concentration, Fluo-4, FLIPR) in CHO-K1 cells with G alpha 15 [4] [nM] | Binder
1 | 97 | 100 | – | – | human Neuropeptide-Y (mature; also called human NPY; NPY) peptide: not shown
2 | 0.17 | 0.24 | 4.8 | 1.8 | APLEPVYPGDNATPEQMAQYAADLRRYINMLTRPRY (peptide, UniProt P01298 30-65, looked up, ends and bridges not checked, mature; also called human PP; PP) [human Pancreatic Polypeptide]
3 | 9.9 | 10 | – | – | swine Peptide YY (mature; also called swine PYY; PYY) peptide: not shown
